Holding throughout (experiment): BLI
A general note: In BLI a coated tip is dipped into the sample, and binding shifts an interference pattern.

The target of data set [1] is MDA5 WT (dL2);LGP2 WT del646-663 (Mus musculus;Mus musculus) (UniProt Q8R5F7). The following applies: MDA5-LGP2 mixture, apparent Kd; 3'-biotin; BLI and EMSA: 20 mM Hepes pH 7.4, 0.15 M KCl, 1 mM TCEP; EMSA 15 min at 4 C with 1 uM protein and 100 ng nucleic …; BLI with 0.1 or 1 uM protein, temperature. In general terms: Mobility shift assays separate free from complexed probe on a gel.

The target in data set [2] is T1, MDA5 WT (dL2) del646-663 (Mus musculus) (UniProt Q8R5F7).
T1 sequence: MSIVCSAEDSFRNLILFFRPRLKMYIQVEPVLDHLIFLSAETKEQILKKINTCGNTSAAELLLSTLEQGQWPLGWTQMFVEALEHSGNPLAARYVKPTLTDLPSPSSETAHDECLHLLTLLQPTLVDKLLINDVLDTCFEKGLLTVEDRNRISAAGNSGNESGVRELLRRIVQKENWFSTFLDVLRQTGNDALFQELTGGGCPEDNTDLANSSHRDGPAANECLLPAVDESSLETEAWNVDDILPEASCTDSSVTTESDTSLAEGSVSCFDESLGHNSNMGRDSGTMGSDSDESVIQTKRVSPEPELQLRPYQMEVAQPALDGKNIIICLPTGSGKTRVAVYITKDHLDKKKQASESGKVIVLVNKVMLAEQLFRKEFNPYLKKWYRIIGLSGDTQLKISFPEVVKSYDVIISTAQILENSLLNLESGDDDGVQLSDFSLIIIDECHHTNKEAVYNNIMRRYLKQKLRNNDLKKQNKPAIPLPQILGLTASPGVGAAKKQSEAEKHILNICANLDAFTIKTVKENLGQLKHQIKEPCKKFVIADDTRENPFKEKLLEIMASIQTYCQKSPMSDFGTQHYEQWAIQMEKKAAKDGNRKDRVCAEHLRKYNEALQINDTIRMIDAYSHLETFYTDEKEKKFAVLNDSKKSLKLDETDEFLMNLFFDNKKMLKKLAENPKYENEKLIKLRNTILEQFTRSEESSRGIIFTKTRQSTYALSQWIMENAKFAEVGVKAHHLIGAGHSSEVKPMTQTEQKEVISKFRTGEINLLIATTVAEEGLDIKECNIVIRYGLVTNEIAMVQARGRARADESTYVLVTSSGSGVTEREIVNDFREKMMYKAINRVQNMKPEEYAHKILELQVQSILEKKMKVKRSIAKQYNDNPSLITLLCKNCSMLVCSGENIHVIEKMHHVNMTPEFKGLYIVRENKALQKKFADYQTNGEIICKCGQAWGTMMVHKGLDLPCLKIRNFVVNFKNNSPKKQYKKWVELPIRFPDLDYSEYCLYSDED
The following applies: 3'-biotin, BLI and EMSA: 20 mM Hepes pH 7.4, 0.15 M KCl, 1 mM TCEP, EMSA 15 min at 4 C with 1 uM protein and 100 ng nucleic acid, BLI with 0.1 or 1 uM protein ….

Data set [3] deals with LGP2 WT (Mus musculus). Particulars: 3'-biotin, BLI and EMSA: 20 mM Hepes pH 7.4, 0.15 M KCl, 1 mM TCEP, EMSA 15 min at 4 C with 1 uM protein and 100 ng nucleic acid, BLI with 0.1 or 1 uM protein ….
The subject of data set [4] is LGP2 K30G (Mus musculus). Particulars: no ATP stated; 3'-biotin; BLI and EMSA: 20 mM Hepes pH 7.4, 0.15 M KCl, 1 mM TCEP; EMSA 15 min at 4 C with 1 uM protein and 100 ng nucleic acid; BLI with 0.1 or 1 uM protein ….
The target in data set [5] is MDA5 WT (dL2);LGP2 K30G del646-663 (Mus musculus;Mus musculus) (UniProt Q8R5F7). The following applies: MDA5-LGP2 K30G mixture; 3'-biotin; BLI and EMSA: 20 mM Hepes pH 7.4, 0.15 M KCl, 1 mM TCEP; EMSA 15 min at 4 C with 1 uM protein and 100 ng nucleic acid; BLI with 0.1 or 1 uM protein ….

In the case of 1-kb dsRNA, 3'-biotin, the Kd in data set [1] worked out at 520 nM; in data set [2] (no ATP stated) it was 1300 nM; in data set [3], 48 nM; in data set [3] (no ATP stated), 70 nM; in data set [4] it was 1300 nM.
On to 300-bp dsRNA, 3'-biotin, for which the Kd in data set [2] is 1310 nM.
Turning to 40-nt ssRNA, 3'-biotin, the figures for the Kd in data set [5] and in data set [2] were 1840 nM and 2600 nM, respectively.

The values above are taken from PMC10909783.
